Data: patent publication US20210170047A1 (CASE WESTERN RESERVE UNIVERSITY, published 2021)
Ends that are not written are not given here.

Tests used:
[1] = biological target: T1, integrin αIIbβ3 (glycoprotein GPIIb-IIIa) on ADP-activated human platelets (human, UniProt P08514 32-1039; P05106 27-788); experiment: flow cytometry, agonist-added human whole blood, 50 µM total lipid
T1 construct: whole, on cells; also called CD41a
Protocol: The effect of platelet activation on liposome binding was studied by a FACScan flow cytometer (Becton Dickinson) with a 488 nm laser and three color detector. For cytometry analysis whole blood aliquots with different platelet activation levels were used. The level of platelet-activation was assessed by simultaneous fluorescence staining of platelet integrin GPIIb-IIIa (with FITC-anti-CD41a) and P-Selectin (with PE-anti-CD62P). Previously we have reported on detecting progressive activation of platelets in freshly drawn blood with addition of agonists (e.g., ADP) and have confirmed that binding of RGD-modified liposomes to platelets increased in an activation-dependant manner. Following a similar protocol, whole blood aliquots containing predominantly activated platelets were incubated with PDPC-NBD-labeled cRGD-, lRGD-, or lRGE-modified liposomes at a final concentration of 50 μM total lipid. For the liposome incubated samples, FITC-anti-CD41a labeling was not used, while PE-anti-CD62P labeling was still used as an activated platelet marker. Simultaneous PE and NBD fluorescence, for gated platelet populations, was analyzed for ˜20,000 events (counts) per sample aliquot and fluorescence data were recorded accordingly. […]

[2] = biological target: T1, integrin αIIbβ3 (glycoprotein …); experiment: flow cytometry, human whole blood with ADP pre-incubation, 50 µM total lipid
Source text: Parallel phase contrast image of the same field of view was obtained on the same microscope, by shutting off the fluorescence laser, turning on the phase contrast light source and changing the objective from fluorescence to a phase contrast one, at same magnification. To establish that the specific binding of cRGD-liposomes is predominantly to activated platelets compared to quiescent platelets, we performed flow cytometry assays similar to that described in previous publications from our group. Briefly, NBD-labeled cRGD liposomes were incubated with aliquots of freshly drawn human whole blood with or without the addition of agonist ADP. […] Following 30 min of liposome incubation, the aliquots were analyzed in a Becton-Dickinson FACScan flow cytometer for NBD fluorescence. All aliquots were measured in triplicate and approximately 15000 counts were recorded per aliquot. […] The NBD fluorescence intensity from aliquots without liposome incubation, aliquots with liposome incubation but without ADP pre-incubation, and aliquots with liposome incubation after ADP pre-incubation, were recorded as histograms and the plots were overlaid for comparison.

[3] = biological target: T1, integrin αIIbβ3 (glycoprotein …); experiment: cell-based or functional assay
[4] = biological target: T2, P-selectin on ADP-activated human platelets (human, UniProt P16109 42-830); experiment: fluorescence microscopy, static, collagen-adhered activated human platelets
T2 construct: whole, on cells; also called CD62P; P-selectins
T2 sequence (looked up): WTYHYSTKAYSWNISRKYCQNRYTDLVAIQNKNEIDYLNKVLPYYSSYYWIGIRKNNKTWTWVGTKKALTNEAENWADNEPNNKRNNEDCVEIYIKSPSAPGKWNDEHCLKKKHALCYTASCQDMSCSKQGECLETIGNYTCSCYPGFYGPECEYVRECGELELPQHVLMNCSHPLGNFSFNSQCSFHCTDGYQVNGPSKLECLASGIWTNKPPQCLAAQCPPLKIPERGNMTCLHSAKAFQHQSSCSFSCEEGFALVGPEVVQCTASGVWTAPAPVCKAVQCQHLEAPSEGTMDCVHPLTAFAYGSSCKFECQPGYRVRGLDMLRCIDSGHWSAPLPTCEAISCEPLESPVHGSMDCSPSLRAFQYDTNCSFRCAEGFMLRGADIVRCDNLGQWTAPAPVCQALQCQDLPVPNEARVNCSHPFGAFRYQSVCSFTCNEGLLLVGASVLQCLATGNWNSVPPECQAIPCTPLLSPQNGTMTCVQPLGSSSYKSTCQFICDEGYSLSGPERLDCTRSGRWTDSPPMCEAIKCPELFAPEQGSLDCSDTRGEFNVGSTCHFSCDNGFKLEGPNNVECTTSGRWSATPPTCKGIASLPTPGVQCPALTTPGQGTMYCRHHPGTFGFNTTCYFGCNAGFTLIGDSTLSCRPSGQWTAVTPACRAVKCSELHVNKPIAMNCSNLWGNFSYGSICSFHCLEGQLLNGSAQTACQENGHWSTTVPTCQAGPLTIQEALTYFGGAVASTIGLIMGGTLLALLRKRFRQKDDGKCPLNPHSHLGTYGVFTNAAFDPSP
Protocol: Receptor-specific binding studies in a static environment human whole blood was obtained from healthy, aspirin-refraining donors by venipuncture following IRB-approved protocol and collected in citrated tubes. Platelet-rich-plasma (PRP) was obtained from the whole blood by centrifugation (150×g, 15 min, room temperature), and platelet concentration was verified at 200×10⁶ platelets/ml. The platelets in PRP were activated using ADP at a concentration of 2×10⁻⁵M, and were allowed to adhere to glass coverslips pre-coated with collagen. […] After 1 h of incubation, the coverslips were gently washed with PBS to remove loosely bound liposomal constructs and imaged using fluorescence microscopy. […] D1 inverted fluorescence microscope fitted with a photometrics chilled CCD camera and a 63× objective using exposure time of 800 ms. To confirm that non-specific binding of the liposomes was not occurring, fluorescently-labeled peptide-modified liposomal constructs were incubated with coverslips coated with collagen only but no activated platelets, followed by gentle washing and imaged using fluorescence microscopy keeping same exposure times (800 ms).

[5] = biological target: T3, integrin GPIIb-IIIa on resting (predominantly inactive, no ADP) human platelets (human, UniProt P08514 32-1039; P05106 27-788); experiment: flow cytometry, human whole blood without agonist
T3 construct: whole, on cells; also called predominantly resting platelets
T3 sequence (P08514 32-1039, chain 1 of 2): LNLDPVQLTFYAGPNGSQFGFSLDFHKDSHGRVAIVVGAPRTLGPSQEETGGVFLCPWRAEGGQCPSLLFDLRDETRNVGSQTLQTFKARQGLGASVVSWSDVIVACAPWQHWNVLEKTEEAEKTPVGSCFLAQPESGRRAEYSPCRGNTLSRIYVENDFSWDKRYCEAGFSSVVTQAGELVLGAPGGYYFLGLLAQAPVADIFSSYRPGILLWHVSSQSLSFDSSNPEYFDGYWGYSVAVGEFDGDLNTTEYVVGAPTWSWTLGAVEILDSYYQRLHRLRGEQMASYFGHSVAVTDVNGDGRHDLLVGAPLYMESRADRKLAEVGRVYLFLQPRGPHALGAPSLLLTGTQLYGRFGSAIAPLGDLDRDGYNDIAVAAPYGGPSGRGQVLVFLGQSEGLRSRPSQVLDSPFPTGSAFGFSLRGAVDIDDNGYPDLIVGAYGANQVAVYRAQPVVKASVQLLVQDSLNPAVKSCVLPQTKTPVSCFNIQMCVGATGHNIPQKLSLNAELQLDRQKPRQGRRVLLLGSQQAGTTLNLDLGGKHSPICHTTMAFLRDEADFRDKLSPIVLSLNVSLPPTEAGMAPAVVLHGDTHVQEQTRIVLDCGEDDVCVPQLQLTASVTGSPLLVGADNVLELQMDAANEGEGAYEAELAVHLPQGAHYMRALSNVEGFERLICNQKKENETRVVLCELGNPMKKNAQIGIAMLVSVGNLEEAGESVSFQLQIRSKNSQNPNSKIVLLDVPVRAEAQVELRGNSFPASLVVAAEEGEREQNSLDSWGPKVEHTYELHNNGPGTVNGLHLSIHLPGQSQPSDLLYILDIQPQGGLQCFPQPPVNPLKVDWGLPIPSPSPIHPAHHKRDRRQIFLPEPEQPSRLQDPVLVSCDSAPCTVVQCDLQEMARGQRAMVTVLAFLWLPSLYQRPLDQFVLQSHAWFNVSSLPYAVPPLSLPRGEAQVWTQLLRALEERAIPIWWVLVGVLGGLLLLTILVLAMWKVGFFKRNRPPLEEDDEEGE
T3 sequence (P05106 27-788, chain 2 of 2): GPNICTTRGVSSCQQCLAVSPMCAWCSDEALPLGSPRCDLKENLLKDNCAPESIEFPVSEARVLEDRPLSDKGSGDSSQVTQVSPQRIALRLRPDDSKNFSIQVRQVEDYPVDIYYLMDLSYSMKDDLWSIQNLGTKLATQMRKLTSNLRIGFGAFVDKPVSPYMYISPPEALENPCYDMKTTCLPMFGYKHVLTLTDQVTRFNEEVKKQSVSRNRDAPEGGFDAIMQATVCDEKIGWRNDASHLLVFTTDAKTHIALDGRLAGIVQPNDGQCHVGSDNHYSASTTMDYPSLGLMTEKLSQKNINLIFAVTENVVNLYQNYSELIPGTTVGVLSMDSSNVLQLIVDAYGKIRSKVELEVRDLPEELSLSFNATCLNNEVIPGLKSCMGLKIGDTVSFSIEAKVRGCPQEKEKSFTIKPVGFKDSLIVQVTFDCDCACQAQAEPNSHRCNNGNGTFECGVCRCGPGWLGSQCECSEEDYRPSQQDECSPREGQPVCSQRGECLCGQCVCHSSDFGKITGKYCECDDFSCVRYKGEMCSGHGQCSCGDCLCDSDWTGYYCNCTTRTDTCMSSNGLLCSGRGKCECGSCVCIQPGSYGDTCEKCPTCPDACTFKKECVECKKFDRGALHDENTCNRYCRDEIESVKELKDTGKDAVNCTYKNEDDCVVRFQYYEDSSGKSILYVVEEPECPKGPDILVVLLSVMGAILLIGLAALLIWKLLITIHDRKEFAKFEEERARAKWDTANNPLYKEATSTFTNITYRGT

[6] = biological target: T1, integrin αIIbβ3 (glycoprotein …); experiment: dual fluorescence microscopy, co-incubation with peptide-modified liposomes
Protocol: The [fibrinogen: liposome] ratio in the incubation assays was maintained at 400:1 by mole, to provide a physiologically relevant competitive environment. […] A 40× oil-immersion objective was used to visualize fluorescence from platelets. Images were collected in MetaMorph™ (Universal Imaging Corp.), using an exposure time of 500 ms and intensity analysis was performed in the software accordingly. Fluorescence intensity was recorded as mean intensity per pixel area for statistical analysis. All coverslips were prepared in duplicate, and at least three fields were examined for each well.

T1 sequence (P08514 32-1039, chain 1 of 2): as the sequence (P08514 32-1039, chain 1 of 2) above
T1 sequence (P05106 27-788, chain 2 of 2): as the sequence (P05106 27-788, chain 2 of 2) above

B1: cRGD-liposomes (liposomes surface-decorated with DSPE-PEG-cRGD, cyclo-CNPRGDY(OEt)RC) (peptide)
peptide: CNPRGDYRC
modifications: not fully specified; Y(OEt); terminal cysteines cyclized through disulfide; N-terminus conjugated to DSPE-PEG lipid, displayed on the liposome surface
notes: NBD or Nanogold label; also called cyclic RGD-modified liposomes
[1]
  platelet-associated NBD fluorescence against lRGD-liposome-incubated aliquots: ~10 fold (printed as an order of magnitude)
[2]
  NBD fluorescence of ADP-activated platelets against inactive platelets: ~100 fold (printed as two orders of magnitude)

B2: free cyclic RGD peptide cyclo-CNPRGDY(OEt)RC (peptide)
peptide: CNPRGDYRC
modifications: Y(OEt); terminal cysteines (C) cyclized through disulfide
[3]
  IC50: concentration of peptide required to inhibit fibrinogen-mediated platelet aggregation in platelet-rich plasma by 50% (aggregometry), against lRGD: ~1000 times lower than for lRGD
  IC50 estimation by aggregometry assay, against lRGD: ~100 fold lower than for lRGD (printed as 2 orders of magnitude)

B3: DAEWVDVS-modified liposomes (liposomes surface-decorated with DSPE-PEG-DAEWVDVS) (peptide)
peptide: {DSPE‑PEG}-DAEWVDVS
modifications: also: displayed multivalently on ~150 nm liposome surface, 5 mol % (2.5-10 mol %)
notes: also called singly-targeted liposomes
[4]
  binding result: binds

B4: RGE-liposomes (liposomes surface-decorated with the negative control peptide GSSSGRGESPA) (peptide)
peptide: {DSPE‑PEG}-GSSSGRGESPA
modifications: also: displayed on liposome surface, 1 or 5 mol %
notes: also called lRGE-liposomes; constructs bearing negative control peptides
[5]
  binding result: no binding (tested: 50 µM total lipid)

B5: human fibrinogen (ligand)
chain 1: ADSGEGDFLAEGGGVRGPRVVERHQSACKDSDWPFCSDEDWNYKCPSGCRMKGLIDEVNQDFTNRINKLKNSLFEYQKNNKDSHSLTTNIMEILRGDFSSANNRDNTYNRVSEDLRSRIEVLKRKVIEKVQHIQLLQKNVRAQLVDMKRLEVDIDIKIRSCRGSCSRALAREVDLKDYEDQQKQLEQVIAKDLLPSRDRQHLPLIKMKPVPDLVPGNFKSQLQKVPPEWKALTDMPQMRMELERPGGNEITRGGSTSYGTGSETESPRNPSSAGSWNSGSSGPGSTGNRNPGSSGTGGTATWKPGSSGPGSTGSWNSGSSGTGSTGNQNPGSPRPGSTGTWNPGSSERGSAGHWTSESSVSGSTGQWHSESGSFRPDSPGSGNARPNNPDWGTFEEVSGNVSPGTRREYHTEKLVTSKGDKELRTGKEKVTSGSTTTTRRSCSKTVTKTVIGPDGHKEVTKEVVTSEDGSDCPEAMDLGTLSGIGTLDGFRHRHPDEAAFFDTASTGKTFPGFFSPMLGEFVSETESRGSESGIFTNTKESSSHHPGIAEFPSRGKSSSYSKQFTSSTSYNRGDSTFESKSYKMADEAGSEADHEGTHSTKRGHAKSRPV
chain 2: QGVNDNEEGFFSARGHRPLDKKREEAPSLRPAPPPISGGGYRARPAKAAATQKKVERKAPDAGGCLHADPDLGVLCPTGCQLQEALLQQERPIRNSVDELNNNVEAVSQTSSSSFQYMYLLKDLWQKRQKQVKDNENVVNEYSSELEKHQLYIDETVNSNIPTNLRVLRSILENLRSKIQKLESDVSAQMEYCRTPCTVSCNIPVVSGKECEEIIRKGGETSEMYLIQPDSSVKPYRVYCDMNTENGGWTVIQNRQDGSVDFGRKWDPYKQGFGNVATNTDGKNYCGLPGEYWLGNDKISQLTRMGPTELLIEMEDWKGDKVKAHYGGFTVQNEANKYQISVNKYRGTAGNALMDGASQLMGENRTMTIHNGMFFSTYDRDNDGWLTSDPRKQCSKEDGGGWWYNRCHAANPNGRYYWGGQYTWDMAKHGTDDGVVWMNWKGSWYSMRKMSMKIRPFFPQQ
chain 3: YVATRDNCCILDERFGSYCPTTCGIADFLSTYQTKVDKDLQSLEDILHQVENKTSEVKQLIKAIQLTYNPDESSKPNMIDAATLKSRKMLEEIMKYEASILTHDSSIRYLQEIYNSNNQKIVNLKEKVAQLEAQCQEPCKDTVQIHDITGKDCQDIANKGAKQSGLYFIKPLKANQQFLVYCEIDGSGNGWTVFQKRLDGSVDFKKNWIQYKEGFGHLSPTGTTEFWLGNEKIHLISTQSAIPYALRVELEDWNGRTSTADYAMFKVGPEADKYRLTYAYFAGGDAGDAFDGFDFGDDPSDKFFTSHNGMQFSTWDNDNDKFEGNCAEQDGSGWWMNKCHAGHLNGVYYQGGTYSKASTPNGYDNGIIWATWKTRWYSMKKTTMKIIPFNRLTIGEGQQHHLGGAKQAGDV
notes: the fibrinogen of human platelet-rich plasma in the aggregometry assay; also called Fg
[6]
  binding result: binds
